In one series the target is T1, human PAC1 (Homo sapiens, UniProt P41586).
T1 construct: expressed in transfected cells
T1 sequence (P41586 21-468): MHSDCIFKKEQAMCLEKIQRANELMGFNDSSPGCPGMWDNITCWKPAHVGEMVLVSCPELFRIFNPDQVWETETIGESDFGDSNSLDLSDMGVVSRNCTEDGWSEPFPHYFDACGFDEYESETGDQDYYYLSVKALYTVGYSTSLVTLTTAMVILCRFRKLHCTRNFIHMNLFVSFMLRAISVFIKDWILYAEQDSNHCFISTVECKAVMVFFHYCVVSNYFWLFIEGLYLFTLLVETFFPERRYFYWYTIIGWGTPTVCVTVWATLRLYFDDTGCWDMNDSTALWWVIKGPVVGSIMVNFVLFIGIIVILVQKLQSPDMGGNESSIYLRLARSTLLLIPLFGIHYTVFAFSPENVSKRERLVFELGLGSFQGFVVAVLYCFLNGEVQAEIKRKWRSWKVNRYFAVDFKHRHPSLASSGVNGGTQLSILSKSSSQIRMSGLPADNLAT
Kind of series: Filter binding assay, membranes from cells transiently transfected with human PAC1, 125I-labeled PACAP-27 tracer. The note with it: read-out: Human receptor binding (IC50; nM) PAC1. The method, then: (§1) For this assay, the solutions and equipment include:
(§2) Presoak solution: 0.5% Polyethyleneamine in Aqua dest.
(§3) Buffer for flushing filter plates: 25 mM HEPES pH 7.4
(§4) Blocking buffer: 25 mM HEPES pH 7.4; 0.2% protease free BSA
(§5) Assay buffer: 25 mM HEPES pH 7.4; 0.5% protease free BSA
(§6) Dilution and assay plate: PS-Microplate, U form
(§7) Filtration Plate Multiscreen FB Opaque Plate; […] Type B Glasfiber filter
(§8) In order to prepare the filter plates, the presoak solution is aspirated by vacuum filtration. The plates are flushed twice with 200 μL flush buffer. 200 μL blocking buffer is added to the filter plate. The filter plate is then incubated with 200 μL presoak solution for 1 hour at room temperature.
(§9) The assay plate is filled with […] (2.5 μg) suspended in assay buffer, 25 μL compound (agonist) in assay buffer, and 25 μL tracer (about 40000 cpm) in assay buffer. The filled plate is incubated for 1 hour with shaking.
(§10) The transfer from assay plate to filter plate is conducted. The blocking buffer is aspirated by vacuum filtration and washed two times with flush buffer. 90 μL is transferred from the assay plate to the filter plate. The 90 μL transferred from assay plate is aspirated and washed three times with 200 μL flush buffer. The plastic support is removed. It is dried for 1 hour at 60° C. 30 μL Microscint is added. The count is performed.
(§11) Values reported are single results or the mean of two or more independent runs.

The next series deals with Normal Wistar rats. As to the kind of experiment: Intravenous glucose tolerance test (IVGTT), serum glucose and insulin. The note with it: Dose = 10 μg/kg iv, time between glucose & compound 0 h. It counts as in vivo, rat. The method, then: Intravenous glucose tolerance test (IVGTT): Normal Wistar rats are fasted overnight and are anesthetized prior to the experiment. A blood sampling catheter is inserted into the rats. The compound is given in the jugular vein. Blood samples are taken from the carotid artery. A blood sample is drawn immediately prior to the injection of glucose along with the compound. After the initial blood sample, glucose mixed with compound is injected intravenously (i.v.). Compound may also be injected intravenously or subcutaneously prior to the glucose challenge. A glucose challenge of 0.5 g/kg body weight is given, injecting a total of 1.5 mL vehicle with glucose and agonist per kg body weight. The peptide concentrations are varied to produce the desired dose in μg/kg. Blood samples are drawn at 2, 4, 6 and 10 minutes after giving glucose. The control group of animals receives the same vehicle along with glucose, but with no compound added. In some instances, a 30 minute post-glucose blood sample is drawn. Aprotinin is added to the blood sample (250-500 kIU/ml blood). The serum is then analyzed for glucose and insulin using standard methodologies.
The assay uses a formulated and calibrated peptide stock in PBS. Normally, this stock is a prediluted 100 μM stock. However, a more concentrated stock with approximately 1 mg agonist per 1 mL is used. The specific concentration is always known. Variability in the maximal response is mostly due to variability in the vehicle dose.

The target of a further series is T2, human VPAC1 (Homo sapiens, UniProt P32241).
T2 construct: expressed in transfected cells
T2 sequence (P32241 31-457): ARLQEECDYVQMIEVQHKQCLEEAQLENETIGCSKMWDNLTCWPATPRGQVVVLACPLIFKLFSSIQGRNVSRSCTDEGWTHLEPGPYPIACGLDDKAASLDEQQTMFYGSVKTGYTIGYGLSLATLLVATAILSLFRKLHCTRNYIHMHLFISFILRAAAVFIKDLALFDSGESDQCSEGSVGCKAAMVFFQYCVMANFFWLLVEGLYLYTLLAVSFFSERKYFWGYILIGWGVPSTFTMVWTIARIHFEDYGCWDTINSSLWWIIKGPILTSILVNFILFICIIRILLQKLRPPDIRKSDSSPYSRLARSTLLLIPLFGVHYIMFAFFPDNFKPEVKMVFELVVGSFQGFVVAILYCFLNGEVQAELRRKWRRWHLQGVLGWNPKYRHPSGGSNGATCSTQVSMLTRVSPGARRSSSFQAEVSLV
As to the kind of experiment: Filter binding assay, membranes from cells transiently transfected with human VPAC1, 125I-labeled VIP tracer. As to conditions: read-out: Human receptor binding (IC50; nM) VPAC1. The method, then: as §1, §2, §3, §4, §5, §6, §7, §8, §9, §10, §11

Series [1] concerns the target T3, human VPAC2 (Homo sapiens, UniProt P41587).
T3 construct: expressed in transfected cells
T3 sequence (P41587 24-438): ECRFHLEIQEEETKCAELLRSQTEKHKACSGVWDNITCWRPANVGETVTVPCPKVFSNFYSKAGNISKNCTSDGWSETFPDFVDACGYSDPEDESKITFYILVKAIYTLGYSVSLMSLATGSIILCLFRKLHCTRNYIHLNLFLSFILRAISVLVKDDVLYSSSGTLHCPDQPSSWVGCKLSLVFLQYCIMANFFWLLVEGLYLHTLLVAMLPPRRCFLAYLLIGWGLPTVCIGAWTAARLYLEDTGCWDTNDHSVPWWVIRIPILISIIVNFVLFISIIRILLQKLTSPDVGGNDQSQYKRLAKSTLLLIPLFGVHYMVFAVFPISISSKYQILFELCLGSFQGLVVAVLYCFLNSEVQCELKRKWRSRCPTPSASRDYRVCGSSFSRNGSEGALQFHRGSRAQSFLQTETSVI
As to the kind of experiment: Alpha screen in vitro potency: human VPAC2-R mediated cAMP generation. The series is classed as cell-based. The note with it: single results or mean of two or more independent runs.

A further series deals with T4, rat VPAC1 receptor (Rattus norvegicus, UniProt P30083).
T4 construct: expressed in transfected cells; host or cells: CHO-PO cells, transient
T4 sequence (P30083 31-459): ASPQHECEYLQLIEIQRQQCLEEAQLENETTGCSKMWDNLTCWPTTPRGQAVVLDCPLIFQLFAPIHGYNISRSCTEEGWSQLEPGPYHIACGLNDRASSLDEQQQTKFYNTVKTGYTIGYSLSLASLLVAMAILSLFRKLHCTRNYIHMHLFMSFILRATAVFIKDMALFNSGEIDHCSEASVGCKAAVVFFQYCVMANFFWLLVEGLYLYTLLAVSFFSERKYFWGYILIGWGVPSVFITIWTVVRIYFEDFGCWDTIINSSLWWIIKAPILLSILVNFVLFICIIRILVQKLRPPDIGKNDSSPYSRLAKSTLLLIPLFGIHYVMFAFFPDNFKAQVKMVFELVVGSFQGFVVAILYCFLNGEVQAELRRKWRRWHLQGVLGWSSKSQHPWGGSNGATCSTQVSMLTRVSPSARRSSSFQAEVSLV
As to the kind of experiment: Rat VPAC1 in vitro potency (cAMP generation, DiscoveRx) in transiently transfected CHO-PO cells. It counts as cell-based. The note with it: CHO-PO cells transiently transfected with rat VPAC1; read-out: rVPAC1 in vitro potency (cAMP generation) EC50. The method, then: (§12) Rat receptor selectivity is estimated by comparing functional potency (cAMP generation) in CHO-PO cells transiently expressing rat VPAC1 or rat VPAC2 receptors. CHO-PO cells transiently expressing rat VPAC1 or VPAC2, are seeded with 10,000 cells/well three days before the assay. The cells are kept in 200 μL culture medium. […] The stimuli are present for 30 minutes. The assay buffer is then gently removed.

The target of the next series is T5, rat VPAC2 receptor (Rattus norvegicus, UniProt P35000).
T5 construct: expressed in transfected cells; host or cells: CHO-PO cells, transient
T5 sequence (P35000 23-437): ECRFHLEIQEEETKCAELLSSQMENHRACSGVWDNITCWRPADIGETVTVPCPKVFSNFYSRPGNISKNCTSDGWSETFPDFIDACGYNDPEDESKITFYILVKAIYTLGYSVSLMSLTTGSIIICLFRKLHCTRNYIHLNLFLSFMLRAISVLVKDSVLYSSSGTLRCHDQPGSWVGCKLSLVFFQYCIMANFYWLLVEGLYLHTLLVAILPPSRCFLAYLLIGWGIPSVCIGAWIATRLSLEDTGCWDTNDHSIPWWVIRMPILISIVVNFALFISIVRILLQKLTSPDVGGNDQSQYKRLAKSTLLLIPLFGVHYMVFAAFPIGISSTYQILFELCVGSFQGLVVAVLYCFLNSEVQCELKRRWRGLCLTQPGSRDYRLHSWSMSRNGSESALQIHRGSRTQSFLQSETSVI
As to the kind of experiment: Rat VPAC2 in vitro potency (cAMP generation, DiscoveRx) in transiently transfected CHO-PO cells. The series is classed as cell-based. The note with it: CHO-PO cells transiently transfected with rat VPAC2; read-out: rVPAC2 in vitro potency (cAMP generation) EC50. On the procedure:
as §12

In series [2] the target is T3, human VPAC2. Kind of series: Filter binding assay, membranes from stable VPAC2 cell line, 125I-labeled VIP tracer. As to conditions: read-out: Human receptor binding (IC50; nM) VPAC2. On the procedure:
as §1, §2, §3, §4, §5, §6, §7, §8, §9, §10, §11

Series [3] in a line: Pharmacokinetic profiles of PEGylated peptides, plasma peptide by RIA. The note with it: Fisher 344 rats, 100 μg compound/kg, plasma RIA, mean N = 3. It counts as in vivo, Fisher 344 rats. The method, then: Pharmacokinetic profiles of PEGylated peptides. Healthy Fisher 344 rats (3 animals per group) are injected with 100 μg compound/kg (compound amount based on peptide content and dissolved in PBS buffer). […] PK parameters are then calculated using a model-independent method (WinNonlin Pro, Pharsight Corp., Mountain View, Calif., USA).

Series [4] deals with T6, human VPAC2 receptor (human), P41587.
T6 chain: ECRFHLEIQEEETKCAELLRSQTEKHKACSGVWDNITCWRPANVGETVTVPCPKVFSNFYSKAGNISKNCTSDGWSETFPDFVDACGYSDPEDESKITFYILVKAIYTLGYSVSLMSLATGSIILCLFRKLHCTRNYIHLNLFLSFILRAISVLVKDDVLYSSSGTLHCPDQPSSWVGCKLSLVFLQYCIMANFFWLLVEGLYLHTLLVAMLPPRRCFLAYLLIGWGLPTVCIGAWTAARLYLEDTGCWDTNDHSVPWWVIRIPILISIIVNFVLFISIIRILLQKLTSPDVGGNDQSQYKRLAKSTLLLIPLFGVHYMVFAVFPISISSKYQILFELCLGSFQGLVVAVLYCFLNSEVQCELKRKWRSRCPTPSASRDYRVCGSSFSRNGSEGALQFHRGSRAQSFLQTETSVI
Kind of series: cell-based or functional assay.

For series [5] the target is unchanged. Kind of series: filter binding, VPAC2 membranes, 125I-VIP tracer.

Ends that are not written are not given here. * marks the point of attachment. Hexanoyl = CCCCCC(=O)*

With “C6-HSDAVFTDNYTRLLAKLALQKYLQSIKNKRYGGPSSGAPPPC(PEG40K) (Hexanoyl-HSDAVFTDNYTRLLAKLALQKYLQSIKNKRYGGPSSGAPPPC(PEG 40 kDa)) [Agonist P190, PEGylated peptide obtained from P164 and methoxy-PEG2-MAL-40K]”, the IC50 was more than 25000 nM in the series with human PAC1 and more than 3000 nM with human VPAC1. Further, in the series with Normal Wistar rats, the “% increase AUC (insulin, 0-10 min after glucose)” value is recorded as “+73%”.
Take “C6-HSDAVFTDNYThRLRAibQVAAAibKYLQSIhRNhRhRYGGPSSGAPPPC(PEG40K)-NH2 (HSDAVFTDNYTXLRXQVAAXKYLQSIXNXXYGGPSSGAPPPC; non-natural residues) [Agonist P340]”: the 50% inhibitory concentration (IC50) was more than 25000 nM in the series with human PAC1, 4.76 nM with human VPAC2 [2] and more than 3000 nM in the series with human VPAC1. Moreover, the EC50 with human VPAC2 [1] came to 7.74 nM; in the series with rat VPAC1 receptor, 116 nM; with rat VPAC2 receptor, 4 nM. This molecule also registered an AUC0-last in series [3] of 515 ng·h/mL. For the same molecule, the peak concentration (Cmax) in series [3] was 44 ng/mL. In series [3], the Tmax was determined as 6 h.
For HSDAVFTDNYTRLRRQVAAKRYLQSIRNGGPSSGAPPPS (modifications not checked) [P219], the cAMP generation (EC50), Alpha screen in series [4] stood at 25.5 nM. The molecule further registered an IC50 in series [5] of 67.9 nM.

The record behind these values is patent US20080146500A1, “Selective Vpac2 Receptor Peptide Agonists” (priority 2004, published 2008).
